T1: Cynomolgus CD3 epsilon Protein, His Tag (Acrobiosystems, Cat #CDE-05226) (cynomolgus (Macaca fascicularis), UniProt Q95LI5 22-117)
T1 construct: also called monkey CD3e; not shown: His tag
T1 sequence: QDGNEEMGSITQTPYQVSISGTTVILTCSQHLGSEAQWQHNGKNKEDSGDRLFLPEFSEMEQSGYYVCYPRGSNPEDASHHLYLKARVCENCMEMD


What was measured:
[1] = target: T2, human CD3e (T-cell surface glycoprotein CD3 epsilon chain) (human, UniProt P07766 23-207); assay: cell-based or functional assay
[2] = target: T3, Histidine-tagged human CD3e protein (human, UniProt P07766 23-126); assay: SPR (Biacore), human CD3e
T3 construct: also called hCD3e-His; not shown: His tag

[3] = target: T1, Cynomolgus CD3 epsilon Protein, His Tag …; assay: SPR (Biacore), cynomolgus CD3e His tag
Procedure: The binding affinity of the anti-hCD3e antibodies with monkey CD3e (Cynomolgus CD3 epsilon Protein (SEQ ID NO: 39 AA Gln 22-Asp 117), His Tag, Acrobiosystems, Cat #CDE-05226) were also measured using surface plasmon resonance (SPR) using Biacore (Biacore, INC, Piscataway N.J.) by the methods as described in the examples.

[4] = target: T2, human CD3e (T-cell surface glycoprotein …); assay: flow cytometry, human PBMC, antibody 1 ug/mL, anti-human IgG Fc-Alexa Fluor647 (1:500), anti-hTcRβ-PerCP (1:30)
Procedure: (§1) PBMC cells were collected from a human subject. After being thawed, the cells were cultured for 3-4 hours. The medium was then discarded, and the cells were resuspended in phosphate-buffered saline (PBS). The cell concentration was then adjusted to 2×10⁶/25 μl PBS.
(§2) A 96-well plate was prepared. 25 ul of cell suspension was added to each well. […] The cells and the antibodies were incubated. After centrifuge, the residues were discarded. The samples were washed again. 25 ul of PBS was then added to each well to resuspend cells.
(§3) Anti-human IgG Fc-Alexa Fluror647 (1:500) and anit-hTcRβ PerCP (1:30) were then added to each well. The cells and the antibodies were incubated and then the cells were washed again by PBS. 300 ul of PBS was then added to each well to resuspend the cells. FACS was performed.

[5] = target: T2, human CD3e (T-cell surface glycoprotein …); assay: flow cytometry, human PBMC, antibody 0.1 ug/mL, anti-human IgG Fc-Alexa Fluor647 (1:500), anti-hTcRβ-PerCP (1:30)
Procedure: as §1, §2, §3

[6] = target: T2, human CD3e (T-cell surface glycoprotein …); assay: flow cytometry, human PBMC, antibody 0.01 ug/mL, anti-human IgG Fc-Alexa Fluor647 (1:500), anti-hTcRβ-PerCP (1:30)
Procedure: as §1, §2, §3

[7] = target: T4, monkey CD3e (Macaca fascicularis) on PBMC (Macaca fascicularis, UniProt Q95LI5 22-198); assay: flow cytometry, Macaca fascicularis PBMC, antibody concentration not given, anti-human IgG Fc-Alexa Fluor647 (1:500), anti-hTcRβ-PerCP (1:30)
T4 construct: Target on PBMC from Macaca fascicularis; also called mfCD3e; monkey PBMC
Procedure: A 96-well plate was prepared. 25 ul of cell suspension was added to each well. Anti-hCD3 antibodies were added to the 96-well plate. The cells and the antibodies were incubated for 15 minutes at 4° C. 185 ul PBS was then added to each well. After centrifuge at 2000 rpm for 5 minutes, the medium was discarded. The samples were washed again. 25 ul of PBS was then added to resuspend cells.
Anti-human IgG Fc-Alexa Fluror647 (1:500) and anti-hTcRβ PerCP (1:30) were then added to each well. The cells and the antibodies were incubated for 15 minutes at 4° C. 185 ul PBS was then added to each well. After centrifuge, the residues were discarded. The samples were washed again. 25 ul of PBS was then added to resuspend cells. […] In contrast, anti-hTcRβ PerCP cannot bind to monkey PBMC.

| Binder | EC50, luciferase of Jurkat-Luc-NFAT cells; antibody from supernatant [1] [µg/mL] | EC50, luciferase of Jurkat-Luc-NFAT cells; purified antibody [1] [µg/mL] | Kd [2] [nM] | koff [2] [s⁻¹] | kon [2] [M⁻¹ s⁻¹] | Kd [3] [nM] | koff [3] [s⁻¹] | kon [3] [M⁻¹ s⁻¹] | upper left quadrant, percent of cells AF647+ / hTcRβ-PerCP- [4] [%] | upper right quadrant, percent of cells AF647+ / hTcRβ-PerCP+ [4] [%] | upper left quadrant, percent of cells AF647+ / hTcRβ-PerCP- [5] [%] | upper right quadrant, percent of cells AF647+ / hTcRβ-PerCP+ [5] [%] | upper left quadrant, percent of cells AF647+ / hTcRβ-PerCP- [6] [%] | upper right quadrant, percent of cells AF647+ / hTcRβ-PerCP+ [6] [%] | upper left quadrant, percent of cells AF647+ / hTcRβ-PerCP- [7] [%] | upper right quadrant, percent of cells AF647+ / hTcRβ-PerCP+ [7] [%] |
| --- | --- | --- | --- | --- | --- | --- | --- | --- | --- | --- | --- | --- | --- | --- | --- | --- |
| 10A4-H1K1-IgG1-LALA (antibody, V domains shown, Humanized; human IgG1 with LALA mutations; also called H1K1 (humanized 10A4)) VH: QVQLVQSGAEVKKPGASVKVSCKASGYTFTSYYIHWVRQAPGQRLEFIGWIYPGNVNAKYNEKFKGRVTITTDKSASTAYMELSSLRSEDTAVYYCAIKGGNYDWGQGTLVTVSS VL: DVVMTQSPLSLPVTLGQPASISCQSSQSLLDSDGKTYLNWLQQRPGQSPRRLIYLVSKLGSGVPDRFSGSGSGTDFTLKISRVEAEDVGVYYCWQGTHFPRTFGGGTKVEIK | 0.294 | 0.524 | 1.86 | 0.000105 | 56300 | 13.2 | 0.000597 | 45200 | 11.9 | 77.6 | 9.8 | 50.7 | 2.69 | 10.8 | 48.4 | 2.33 |
| 10A4-H1K2-IgG1-LALA (antibody, V domains shown, Humanized; human IgG1 with LALA mutations; also called H1K2 (humanized 10A4)) VH: QVQLVQSGAEVKKPGASVKVSCKASGYTFTSYYIHWVRQAPGQRLEFIGWIYPGNVNAKYNEKFKGRVTITTDKSASTAYMELSSLRSEDTAVYYCAIKGGNYDWGQGTLVTVSS VL: DVVMTQSPLSLPVTLGQPASISCQSSQSLLDSDGKTYLNWLQQRPGQSPRRLIYLVSKLGSGVPDRFSGSGSGTDFTLKISRVEAEDVGVYYCWQGTHFPRTFGGGTKLEIK | 0.272 | 0.726 | 2.14 | 0.000127 | 59300 | 5.18 | 0.000298 | 57500 | 13.5 | 75.8 | 10.8 | 57.8 | 2.53 | 11.6 | 47 | 2.56 |
| 10A4-H2K1-IgG1-LALA (antibody, V domains shown, Humanized; human IgG1 with LALA mutations; also called H2K1 (humanized 10A4)) VH: QVQLVQSGAEVKKPGASVKISCKASGYTFTSYYIHWVRQAPGQRLEFIGWIYPGNVNAKYNEKFKGRATITTDKSASTAYMELSSLRSEDTAVYYCAIKGGNYDWGQGTLVTVSS VL: DVVMTQSPLSLPVTLGQPASISCQSSQSLLDSDGKTYLNWLQQRPGQSPRRLIYLVSKLGSGVPDRFSGSGSGTDFTLKISRVEAEDVGVYYCWQGTHFPRTFGGGTKVEIK | 0.266 | 0.313 | 1.84 | 0.000111 | 60500 | 4.66 | 0.000261 | 55900 | 11.6 | 76.8 | 10.3 | 59.4 | 2.67 | 14.8 | 49.4 | 2.32 |
| 10A4-H1K3-IgG1-LALA (antibody, V domains shown, Humanized; human IgG1 with LALA mutations; also called H1K3 (humanized 10A4)) VH: QVQLVQSGAEVKKPGASVKVSCKASGYTFTSYYIHWVRQAPGQRLEFIGWIYPGNVNAKYNEKFKGRVTITTDKSASTAYMELSSLRSEDTAVYYCAIKGGNYDWGQGTLVTVSS VL: not shown | 0.393 | 0.583 | 2.21 | 0.000133 | 60200 | 11.8 | 0.000508 | 43100 | 11 | 79.2 | 10.2 | 56.2 | 2.67 | 16.6 | 46 | 1.54 |

Stronger by Kd [2], values ahead:

| EC50, luciferase of Jurkat-Luc-NFAT cells; antibody from supernatant [1] [µg/mL] | EC50, luciferase of Jurkat-Luc-NFAT cells; purified antibody [1] [µg/mL] | Kd [2] [nM] | koff [2] [s⁻¹] | kon [2] [M⁻¹ s⁻¹] | Kd [3] [nM] | koff [3] [s⁻¹] | kon [3] [M⁻¹ s⁻¹] | upper left quadrant, percent of cells AF647+ / hTcRβ-PerCP- [4] [%] | upper right quadrant, percent of cells AF647+ / hTcRβ-PerCP+ [4] [%] | upper left quadrant, percent of cells AF647+ / hTcRβ-PerCP- [5] [%] | upper right quadrant, percent of cells AF647+ / hTcRβ-PerCP+ [5] [%] | upper left quadrant, percent of cells AF647+ / hTcRβ-PerCP- [6] [%] | upper right quadrant, percent of cells AF647+ / hTcRβ-PerCP+ [6] [%] | upper left quadrant, percent of cells AF647+ / hTcRβ-PerCP- [7] [%] | upper right quadrant, percent of cells AF647+ / hTcRβ-PerCP+ [7] [%] | Binder |
| --- | --- | --- | --- | --- | --- | --- | --- | --- | --- | --- | --- | --- | --- | --- | --- | --- |
| 0.416 | 0.472 | 1.38 | 8.85e-05 | 63900 | 9.12 | 0.000497 | 54500 | 14.9 | 74.2 | 7.13 | 45.6 | 2.8 | 14.5 | 51.1 | 2.59 | 10A4-H2K3-IgG1-LALA (antibody, V domains shown, Humanized; human IgG1 with LALA mutations; also called H2K3 (humanized 10A4)) VH: QVQLVQSGAEVKKPGASVKISCKASGYTFTSYYIHWVRQAPGQRLEFIGWIYPGNVNAKYNEKFKGRATITTDKSASTAYMELSSLRSEDTAVYYCAIKGGNYDWGQGTLVTVSS VL: not shown |
| 0.477 | – | 1.05 | 6.33e-05 | 60300 | – | – | – | 11.5 | 76.6 | 11 | 54.4 | 2.68 | 12.5 | 82.7 | 0.225 | 10A4-H4K3-IgG1-LALA (antibody, V domains shown, Humanized; human IgG1 with LALA mutations; also called H4K3 (humanized 10A4)) VH: QVQLQQSGAEVKKPGASVRISCKASGYTFTSYYIHWVRQRPGQGLEFIGWIYPGNVNAKYNEKFKGRATLTTDKSASTAYMELSSLRSEDTAVYFCAIKGGNYDWGQGTLVTVSS VL: not shown |
| 0.253 | – | 1.6 | 0.000103 | 64100 | – | – | – | 15 | 74.4 | 8.54 | 57.1 | 2.25 | 16 | 44.9 | 1.49 | 10A4-H4K2-IgG1-LALA (antibody, V domains shown, Humanized; human IgG1 with LALA mutations; also called H4K2 (humanized 10A4)) VH: QVQLQQSGAEVKKPGASVRISCKASGYTFTSYYIHWVRQRPGQGLEFIGWIYPGNVNAKYNEKFKGRATLTTDKSASTAYMELSSLRSEDTAVYFCAIKGGNYDWGQGTLVTVSS VL: DVVMTQSPLSLPVTLGQPASISCQSSQSLLDSDGKTYLNWLQQRPGQSPRRLIYLVSKLGSGVPDRFSGSGSGTDFTLKISRVEAEDVGVYYCWQGTHFPRTFGGGTKLEIK |
